Measured values published in FireProtDB (doi:10.1021/bi015547k).

B1: Steroid Delta-isomerase, P07445 (parent)
chain: MNLPTAQEVQGLMARYIELVDVGDIEAIVQMYADDATVEDPFGQPPIHGREQIAAFYRQGLGGGKVRACLTGPVRASHNGCGAMPFRVEMVWNGQPCALDVIDVMRFDEHGRIQTMQAYWSEVNLSVREPQ

Variants of: B1
Conditions: Pseudomonas putida; pH 7; 25 °C; Urea; CD; potassium phosphate 20 mM; reversible: yes; structure 1OH0; whole UniProt chain shown

Row | Variant | ddG of mutation (higher = less stable) | denaturant m value | denaturant midpoint (higher = more stable) | unfolding free energy
1 | MNLPTAQEVQGLMARYIELVDVGDIEAIVQMYADDATVEDPFGQPPIHGREQIAAFSRQGLGGGKVRACLTGPVRASHNGCGAMPFRVEMVWNGQPCALDVIDVMRFDEHGRIQTMQAYWSEVNLSVREPQ | 9.5 kcal/mol | 3.43 kcal/mol/M | 2.41 M | 14.8 kcal/mol
2 | MNLPTAQEVQGLMARSIELVDVGDIEAIVQMYADDATVEDPFGQPPIHGREQIAAFYRQGLGGGKVRACLTGPVRASHNGCGAMPFRVEMVWNGQPCALDVIDVMRFDEHGRIQTMQAYWSEVNLSVREPQ | – | 2.93 kcal/mol/M | 1.99 M | 12.4 kcal/mol
3 | MNLPTAQEVQGLMARYIELVDVGDIEAIVQMSADDATVEDPFGQPPIHGREQIAAFYRQGLGGGKVRACLTGPVRASHNGCGAMPFRVEMVWNGQPCALDVIDVMRFDEHGRIQTMQAYWSEVNLSVREPQ | – | 2.55 kcal/mol/M | 1.56 M | 10.6 kcal/mol
